# Results taken from a protein production outcome set (Wang et al. 2014).
# Assay: label from the status in PepcDB records
row,Sequence,protein production
1,MHSQIWVVSTLLISIVLIVLTIVKFKFHPFLALLLASFFVGTMMGMGPLDMVNAIESGIGGTLGFLAAVIGLGTILGKMMEVSGAAERIGLTLQRCRWLSVDVIMVLVGLICGITLFVEVGVVLLIPLAFSIAKKTNTSLLKLAIPLCTALMAVHCVVPPHPAALYVANKLGADIGSVIVYGLLVGLMASLIGGPLFLKFLGQRLPFKPVPTEFADLKVRDEKTLPSLGATLFTILLPIALMLVKTIAELNMARESGLYILVEFIGNPITAMFIAVFVAYYVLGIRQHMSMGTMLTHTENGFGSIANILLIIGAGGAFNAILKSSSLADTLAVILSNMHMHPILLAWLVALILHAAVGSATVAMMGATAIVAPMLPLYPDISPEIIAIAIGSGAIGCTIVTDSLFWLVKQYCGATLNETFKYYTTATFIASVVALAGTFLLSFII,failed
2,MEYYFTAQKLAVGYDNRPLIENIDFSLKRGEILTLIGPNGAGKSTILKSIARQLSLVSGTIYLDKSDVVTMNGNEFAKKMAVVLTDKLKTELMTCYDVVATGRYPYTGRFGVLSDEDKKAVDEAMELVNVSQIKDKDFTKISDGQRQRVMLSRAICQQPEIIVLDEPTSYLDIKYKLEFLSILQRLKRQKNLTVIMSLHELDMAKRVSDHILCIDGRYVDRYGTPEEVFTDQYVSGLFGITAGSLEHHHHHH,not failed
3,MENEVTLLDLLWALRRAFLRLLLLALGVGLGVYALSLLLPKRYESAALLWLDLRPFPSQEALRPFPSQEALRPFPSQEALSPDQPLTSPPLASLVQALDLSLPTLRLSPAGEPASRFAQVEWDAKAQVLSLRAFGATPEEAQRRATKLLEEARSFLQARVREAYGGLAAAELARAEKALGLLEKALQEEVPQVSSRGSADLAPFLEAQGTPPPVARAQDPAATYLALKRAELLAEASRLQAQVAWLRDLLAQDGTWDRFLAESVLLSPTLPERPLAPRPLAYGVLAALGALLLGVLWVFLATVLRPGGAGVPQSDA,failed
4,MFGAKKNNTKIIEQLEKKCNGLGDILRSIGNTMAVIEFTTDGVILEANQNFLTTMKYSLSEIKGKHHSMFCLPEVVNSSAYSDFWKDLRDGKARSGLFRRIAKGGIDVYLEANYLPISDNNGYVYKIIKFANDITQRHYEMLDLRNTIAAANRSMAIIEFKPDGTIITANENFLRAMDFNIDEIKGKHHSMFCDSNYRHSKDYVQFWEDLREGKFQSGKYIRYGRNNKKVYLEASYNPVKNDDGKIYKVIKFATDISEQVKKDQEKLRLISELAEKNDNLTQDGDRVIENTVSNVQNIADMMSQSSNLVSSLNQQSDEIKSIIQTISDIADQTNLLALNAAIEAARAGEHGRGFAVVADEVRNLAERTGHSVNEITTTINSIRNVTSQVVESIKSGLEDVNQSVELAKEARECMEKIRESSAEVAKAMS,failed
5,MKIKAISIDIDGTITYPNRMIHEKALEAIRRAESLGIPIMLVTGNTVQFAEAASILIGTSGPVVAEDGGAISYKKKRIFLASMDEEWILWNEIRKRFPNARTSYTMPDRRAGLVIMRETINVETVREIINELNLNLVAVDSGFAIHVKKPWINKGSGIEKASEFLGIKPKEVAHVGDGENDLDAFKVVGYKVAVAQAPKILKENADYVTKKEYGEGGAEAIYHILEKFGYL,not failed
6,MLDLVSSKTTPVFSLVAFAVIHSLTASLPFKRMVMKAAGPRAEKLYLPAYSLVAVLTVLPLAYQLYKNPGRILYKIPSPWRWLMVGGQVIAGILAPMAFWNAPHRFKIRSQLSGPQASEEGSLKIKGIYRWVRDPFLLSGLVVMLLTPFMTVNLLIVYLLTTVYLFLGSLHWETRLVAQFGDEYREYQKKVHRIIPELKGSVKNPGDKASE,failed
7,MDVDVDVDVEMDMDMDMYVALVEVEVEVFLLRTQILTESRKGRMITNMKKPNGNVTNVCDRCGGNGHWFHTCRIPKYLVELYKQSLKQDGKNTETNLVYEKGEDDTTHMELDDFLTHDGNIDS,failed
8,MDRIPFGIRQLDSIINGGAPAGSVVLLSGEAGAGSREFMHTSALINGLEQVDTELHDLYYGDRSPDAVAPDEVHYISFTTNESQLVSEMRLAMDDDVVDKGSRAVEFHDLSERYFHISPVPREWYASETASITDLRARHEREDLLGTLGMVLNEVAANNLVVIDSLSDLVSAMGEEIEWSDISSLVQGLQKAAHQWGCLLLLHINPETLSTVRHGQLVDASHGTMEFAWESGGSTRARTLVVQQFRGVLSQIEDEDIVQFETELGDAGFDISDVRKIRLEHHHHHH,failed
9,MSLKKINTVLAAAFILFILWFGAEFILSPETTAPGFGLPSWPSGDGDGFLIIKGIRDVVLALVLGILLVTGHRRALGWALLVEALAAYGDMTAVLAHHGSVATALGVHCLTATLMVVNGLLIMRETRKVAAAPATPAPQPA,failed
10,MMEERAAAAVASAASSCRPLGSGTAPNPTAAAPASSPAPGPGPVGKGGGGGGSPGPTAGPEPLSLPGILHFIQHEWARFEAEKARWEAERAELQAQVAFLQGERKGQENLKTDLVRRIKMLEYALKQERAKYHKLKFGTDLNQGEKKTDLSEQVSNGPVESVTLENSPLVWKEGRQLLRQYLEEVGYTDTILDMRSKRVRSLLGRSLELNGAGEPVEGAPRASPGPGGLSGGESLLVKQIEEQIKRNAAGKDGKERLGGSVLEQIPFLQNCEDEDSDEDDELDSVQHKKQRVRLPSKALVPEMEDEDEEDDSEDAINEFDFLGSGEDGEGSPDPRRCTSEGNPHELESRRVKLQGILADLRDVDGLPPKVTVPPPGTPQPRPHEGSFGFSSDVFIMDTIGGGEVSLGDLADLTVTNDNDLSCDLSDSKDAFKKTWNPKFTLRSHYDGIRSLAFHHSQSALLTASEDGTLKLWNLQKAVTAKKNAALDVEPIHAFRAHRGPVLAVTMGSNSEYCYSGGADARIHSWKIPDLNMDPYDGYDPSVLSHVLEGHGDAVWGLAFSPTSQRLASCSADGTVRIWDPSSSGPSCLCTFPMDGEHGIPTSVAFTSTEPAHVVASFRSGDTVLYDLEAGSALLTLESRGSSGPAQINQVVSHPSQPLTITAHDDRGIRFLDNRTGKSVHSMVAHLDAVTCLAVDPNGVFLMSGSHDCSLRLWSLDNKTCVQEITAHRKKHEEAIHAVACHPSKALIASAGADALAKVFV,failed
11,MGHEAKHPIIIGITGNIGSGKSTVAALLRSWGYPVLDLDALAARARENKEEELKRLFPEAVVGGRLDRRALARLVFSDPERLKALEAVVHPEVRRLLMEELSRLEAPLVFLEIPLLFEKGWEGRLHGTLLVAAPLEERVRRVMARSGLSREEVLARERAQMPEEEKRKRATWVLENTGSLEDLERALKAVLAELTGGAKEGRG,not failed
12,MNANENVSDDRFAEMVWEAVSGGATLKDVHGIPQDMMEGLYAHAYDFYHKGRLDEAETFFRFLCIYDFYNPDYIMGLAAVCQLKKQFQKAVDLYAVAFALSKNDYRPVFFTGQCQLFMRKAAKARQCFELVCEQSGDESLRDKAQVYLDSLQEAEAEQSRQQEKEQA,failed
13,TATNHQGLPAVDSEILEMPPEKADGVVEGIDVNGPKAQLMLRYPDGKREQITLPEQAKLLALVKHVQSKGYPNERFELLTNFPRRKLSHLDYDITLQEAGLCPQETVFVQE,not failed
14,MERHQHLLSEYQQILTLSEQMLVLATEGNWDALVDLEMTYLKAVESTANITISSCSSLMLQDLLREKLRAILDNEIEIKRLLQLRLDRLSDLVGQSTKQQAVNNTYGQFPDHALLLGETQ,not failed
15,MTNIQALFERIAPLYDRLNDQLSFGLHHVWKQMAVDWLELPQGATALDLCCGTGDLTRLLARRVGRQGRVVGLDFAAAPLAIARQRSDHYPQIEWLQGDALAVPFAPQTFQGITIGYGLRNVVDIPQALREMFRLLVPGGRAAILDFSHPQTSALEQFQQWYLQQWVVPTARHYGLAAEYDYLWPSIQAFPTPPTLCALIQQAGFERVKHYPLLGGLMAITVAQKLEHHHHHH,failed
16,MNKYFPLAKYKKEKMMFMKLLEGCYKVERLYIYSKRLCKQMEPKSQEEYNIARKQIKKTFDEGWTEADCGGRESCILEIPFVFWSSPNKSNCRRQPKRSYGKKLLYIPLNDLKDDIPYPNSSSEAGKVWKPQ,failed
17,MAVSLPNSFLQISPCVPSLQLRKPVMAAVKGGKQSVRRSSNTVVQITCRKKELHPEFHEDAKVYCNGELVMTTGGTKKEYVVDVWSGNHPFYLGNRSALMVDADQVEKFRKRFAGLSEIMEIPVLKGEIIMPTKKSKGPKGKKK,failed
